From US20090036365A1

Molecular target: human plasmin (human) (UniProt P00747)
Test: display phage binding to immobilised protease; this row is the reference taken as unit

human plasmin (human), sequence (P00747 97-810 limits assumed): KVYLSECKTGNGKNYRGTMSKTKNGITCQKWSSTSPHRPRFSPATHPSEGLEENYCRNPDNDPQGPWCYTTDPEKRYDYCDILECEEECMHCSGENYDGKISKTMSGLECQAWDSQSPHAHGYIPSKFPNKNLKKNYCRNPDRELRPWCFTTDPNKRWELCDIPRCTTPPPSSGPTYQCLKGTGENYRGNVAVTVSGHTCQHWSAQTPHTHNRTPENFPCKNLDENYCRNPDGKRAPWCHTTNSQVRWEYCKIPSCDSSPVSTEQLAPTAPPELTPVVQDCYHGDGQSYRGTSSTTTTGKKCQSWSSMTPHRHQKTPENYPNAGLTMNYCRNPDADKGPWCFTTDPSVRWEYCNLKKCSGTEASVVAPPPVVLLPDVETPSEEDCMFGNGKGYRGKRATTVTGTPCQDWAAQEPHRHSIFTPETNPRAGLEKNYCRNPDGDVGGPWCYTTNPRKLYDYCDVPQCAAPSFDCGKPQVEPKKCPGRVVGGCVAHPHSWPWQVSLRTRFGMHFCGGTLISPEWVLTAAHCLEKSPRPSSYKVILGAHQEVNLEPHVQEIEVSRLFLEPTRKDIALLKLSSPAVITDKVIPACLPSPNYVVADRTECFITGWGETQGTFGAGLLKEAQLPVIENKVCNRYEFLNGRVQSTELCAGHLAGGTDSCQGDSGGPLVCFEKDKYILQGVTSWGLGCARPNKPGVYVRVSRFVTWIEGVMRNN

**Q.** For “LACI-K1 (first Kunitz domain of human lipoprotein-associated coagulation inhibitor) (from UniProt P10646 50-107)”, which relative binding (LACI-K1 phage = unit) (fold of LACI-K1 phage) is on record?
**A.** The relative binding (LACI-K1 phage = unit) (fold of LACI-K1 phage) was 1.
